Experimental data: patent US20030228306A1

Legend:
[1] = biological target: CC-chemokine receptor CCR5 (UniProt P51681); assay: cell-based or functional assay
[2] = biological target: CC-chemokine receptor CCR5 (UniProt P51681); assay: flow cytometry on mitogen-stimulated PBMC, m.f.i.

Sequence of UniProt P51681 (P51681 whole entry): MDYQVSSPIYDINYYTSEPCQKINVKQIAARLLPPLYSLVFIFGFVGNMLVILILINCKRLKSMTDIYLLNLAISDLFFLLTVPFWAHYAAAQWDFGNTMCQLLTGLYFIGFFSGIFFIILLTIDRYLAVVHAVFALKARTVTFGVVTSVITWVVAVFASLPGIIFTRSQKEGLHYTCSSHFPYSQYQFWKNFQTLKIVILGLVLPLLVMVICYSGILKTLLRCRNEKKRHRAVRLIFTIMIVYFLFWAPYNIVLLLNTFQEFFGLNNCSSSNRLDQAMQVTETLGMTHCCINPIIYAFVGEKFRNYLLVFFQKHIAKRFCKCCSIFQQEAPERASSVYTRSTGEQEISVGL

Row | Substance | IC50, inhibition of JR-FL entry (luciferase entry assay) [1] [µg/mL] | IC50, inhibition of fusion between PM1 cells and HeLa-EnvJR-FL+ cells (RET assay) [1] [µg/mL] | IC50 for calcium influx inhibition, ratio against 2D7 [1] [fold] | fold difference in m.f.i. against PA9 [2] [fold] | K (equal to the IC50 value), inhibition of cell-cell fusion, median effect fit (RET assay) [1] [µg/mL]
1 | anti-CCR5 monoclonal antibody PA14 | 0.024 | 1.7 | 8 | 7 | –
2 | anti-CCR5 mAb 2D7 (antibody) | 0.026 | 1.6 | – | – | 0.36
